Data from publication PMC4072508, “Genome-Wide Prediction and Validation of Peptides That Bind Human Prosurvival Bcl-2 Proteins” (PLoS Computational Biology, 2014).

T1: Bcl-w, Q92843
T1 chain: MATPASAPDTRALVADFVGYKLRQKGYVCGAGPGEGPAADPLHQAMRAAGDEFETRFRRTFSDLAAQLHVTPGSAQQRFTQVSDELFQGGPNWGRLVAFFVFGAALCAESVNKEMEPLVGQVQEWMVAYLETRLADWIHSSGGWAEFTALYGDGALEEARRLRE

T2: Mcl-1, Q07820
T2 chain: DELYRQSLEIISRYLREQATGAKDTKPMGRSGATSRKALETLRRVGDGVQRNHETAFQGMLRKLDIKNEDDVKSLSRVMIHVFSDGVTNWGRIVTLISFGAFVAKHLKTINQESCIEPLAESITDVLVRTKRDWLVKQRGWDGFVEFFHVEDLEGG

T3: Bfl-1, Q16548
T3 chain: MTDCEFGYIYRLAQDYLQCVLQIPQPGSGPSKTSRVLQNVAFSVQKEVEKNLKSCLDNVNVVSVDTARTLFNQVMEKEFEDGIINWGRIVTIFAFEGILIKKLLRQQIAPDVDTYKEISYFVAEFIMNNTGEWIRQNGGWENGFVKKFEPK


How the values were obtained:
Assay in all cases: peptide SPOT array, c-Myc-tagged receptor at 1 uM or 100 nM, anti-c-Myc-Cy3
[1] = target: Bcl-2, P10415
[2] = target: T1, Bcl-w, Q92843
[3] = target: Bcl-xL, Q07817
[4] = target: T2, Mcl-1, Q07820
[5] = target: T3, Bfl-1, Q16548

Bcl-xL, Q07817, sequence (Q07817 1-209): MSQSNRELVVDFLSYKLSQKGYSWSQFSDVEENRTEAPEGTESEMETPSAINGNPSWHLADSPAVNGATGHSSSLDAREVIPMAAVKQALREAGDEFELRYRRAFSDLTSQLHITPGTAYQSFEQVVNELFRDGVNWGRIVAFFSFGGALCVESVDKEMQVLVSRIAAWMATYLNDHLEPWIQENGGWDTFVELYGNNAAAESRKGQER
Bcl-2, P10415, sequence (P10415 1-217): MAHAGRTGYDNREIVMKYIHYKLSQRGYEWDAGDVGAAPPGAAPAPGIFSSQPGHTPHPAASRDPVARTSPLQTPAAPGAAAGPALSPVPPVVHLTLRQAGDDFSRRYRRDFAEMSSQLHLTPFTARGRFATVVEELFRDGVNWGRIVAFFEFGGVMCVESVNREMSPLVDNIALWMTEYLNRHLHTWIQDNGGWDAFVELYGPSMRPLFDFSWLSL

Binder | SPOT signal as a fraction of Bim BH3's signal on the same receptor and array [1] | SPOT signal as a fraction of Bim BH3's signal on the same receptor and array [2] | SPOT signal as a fraction of Bim BH3's signal on the same receptor and array [3] | SPOT signal as a fraction of Bim BH3's signal on the same receptor and array [4] | SPOT signal as a fraction of Bim BH3's signal on the same receptor and array [5]
KFMKTIPGTALVEMGDEYAVERAVTH [HNRPLL] | 0.01 | 0.02 | 0.04 | 0.02 | 0.02
MRPEIWIAQEDRRIGDEFNAYYARRV [BCL2L11] | 0.05 | 0.06 | 0.09 | 0.05 | 0.05
NWFGDWSTEALYQVGKEFTSKMDLEK [DYNC1H1] | 0.02 | 0.03 | 0.04 | 0.03 | 0.03
SCMATVIHNPLKALGDQFYKEAIEHC [DPF3] | 0.15 | 0.2 | 0.13 | 0.02 | 0.03
EGMRTILVDWLVEVGEEYKLRAETLY [CCNA1] | 0.01 | 0.02 | 0.05 | 0.05 | 0.02
DGLDLPSETDLRILGCELIQAAGILL [CCNL1] | 0.01 | 0.01 | 0.03 | 0.03 | 0.01
FSVDLNASRSLSQVAMDLHEAVSMKL [DCST2] | 0.01 | 0.03 | 0.03 | 0.06 | 0.08
DAIIQMIVELLKRVGDQWEEEQSLAS [C6orf222] | 0.01 | 0.33 | 0.16 | 0.09 | 0.06
KWTAEEVVLWLEQLGPWASLYRERFL [BFAR] | 0.02 | 0.03 | 0.07 | 0.05 | 0.04
GAQHSTMTSTLRRLGEDIFKGVVTKG [CCDC138] | 0.09 | 0.64 | 0.12 | 0.43 | 0.45
DISALTASNLLKKYAEKYSGILEGPV [FIGN] | 0.06 | 0.13 | 0.1 | 0.13 | 0.33
DQEEACASRQLHSLASFSTVTARRNP [INCA1] | 0.08 | 0.2 | 0.12 | 0.23 | 0.35
NMSNYSSSSLLSGAGKDSLVEHDEEF [KIAA0367] | 0.01 | 0.02 | 0.03 | 0.02 | 0.01
PFKKMDFSRNLYDIGEQLDSEDLASL [CASP8] | 0.02 | 0.03 | 0.07 | 0.05 | 0.02

Now from value to binder:

SPOT signal as a fraction of Bim BH3's signal on the same receptor and array [1] | SPOT signal as a fraction of Bim BH3's signal on the same receptor and array [2] | SPOT signal as a fraction of Bim BH3's signal on the same receptor and array [3] | SPOT signal as a fraction of Bim BH3's signal on the same receptor and array [4] | SPOT signal as a fraction of Bim BH3's signal on the same receptor and array [5] | Binder
0.01 | 0.01 | 0.02 | 0.02 | 0.01 | ALNAQPSAEELSKIADSVNLPLDVVK [ZEB1]
0.18 | 0.91 | 0.54 | 0.3 | 0.52 | NRKGEKNGKGLRHFSMKVCEKVQRKG [TFDP1]
0.01 | 0.02 | 0.02 | 0.02 | 0.01 | GVAASDFIRSLDHCGDLALEGVFSHK [NLRC4]
0.01 | 0.02 | 0.04 | 0.02 | 0.03 | DATHDEAVQALKRAGKEVLLEVKYMR [SNTB1]
0.2 | 1.09 | 0.29 | 0.47 | 0.75 | DLSSTFVSLALRKVGDWPLSARREKG [TTC31]
0.49 | 1.08 | 1.08 | 0.69 | 0.91 | VIKQRRLPDQLSKLADRIQLSGRYYL [RAPGEF2]
0.02 | 0.07 | 0.13 | 0.05 | 0.07 | LNELYQRAKKLSKAGDNIPEEQPVAS [TMX2]
0.33 | 1.03 | 0.89 | 0.48 | 0.78 | ELLRLRQHWKLRKVGDKILGDLSYRS [MED17]
